# Assay results reported in patent publication US20220153832A1 (PIONYR IMMUNOTHERAPEUTICS, published 2022).
# T1: chimera Mouse MARCO CLD-human MARCO SRCR, on cells
# T1 chain: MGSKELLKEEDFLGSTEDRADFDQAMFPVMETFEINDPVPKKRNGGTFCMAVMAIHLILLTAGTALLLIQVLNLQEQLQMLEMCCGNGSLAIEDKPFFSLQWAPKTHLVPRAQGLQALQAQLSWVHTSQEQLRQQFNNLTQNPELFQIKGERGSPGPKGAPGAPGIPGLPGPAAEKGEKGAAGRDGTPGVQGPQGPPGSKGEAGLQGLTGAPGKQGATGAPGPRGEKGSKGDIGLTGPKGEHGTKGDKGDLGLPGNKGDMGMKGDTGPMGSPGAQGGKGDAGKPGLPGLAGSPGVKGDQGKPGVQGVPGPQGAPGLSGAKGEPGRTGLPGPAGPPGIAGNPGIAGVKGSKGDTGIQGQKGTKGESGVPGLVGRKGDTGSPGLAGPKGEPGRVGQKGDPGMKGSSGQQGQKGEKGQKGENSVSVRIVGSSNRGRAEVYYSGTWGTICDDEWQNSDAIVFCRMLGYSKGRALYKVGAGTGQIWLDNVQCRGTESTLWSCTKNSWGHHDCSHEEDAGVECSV
# T2: Cynomolgus MARCO, full length, on cells (cynomolgus, UniProt A0A2K5X0Z2 1-519)
# T2 construct: whole, on cells; also called cyno MARCO; CyMARCO
# T2 sequence: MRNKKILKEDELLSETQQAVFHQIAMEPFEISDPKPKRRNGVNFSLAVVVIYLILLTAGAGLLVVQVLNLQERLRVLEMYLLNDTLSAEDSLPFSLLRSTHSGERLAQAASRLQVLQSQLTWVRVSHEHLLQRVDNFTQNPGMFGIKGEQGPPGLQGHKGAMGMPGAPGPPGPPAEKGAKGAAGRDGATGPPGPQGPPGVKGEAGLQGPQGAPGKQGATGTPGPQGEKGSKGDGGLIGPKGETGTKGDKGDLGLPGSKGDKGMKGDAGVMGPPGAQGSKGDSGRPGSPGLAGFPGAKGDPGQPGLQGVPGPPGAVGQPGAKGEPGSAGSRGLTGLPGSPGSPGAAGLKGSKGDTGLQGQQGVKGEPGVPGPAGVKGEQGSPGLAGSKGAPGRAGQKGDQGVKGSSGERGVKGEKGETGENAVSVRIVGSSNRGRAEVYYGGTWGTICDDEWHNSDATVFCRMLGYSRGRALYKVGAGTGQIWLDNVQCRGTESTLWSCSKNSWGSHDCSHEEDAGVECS
# T3: recombinant cynomolgus MARCO protein (cynomolgus, UniProt A0A2K5X0Z2 65-519)
# T3 construct: Construct not described; also called cyno MARCO; cynoMARCO
# T3 sequence: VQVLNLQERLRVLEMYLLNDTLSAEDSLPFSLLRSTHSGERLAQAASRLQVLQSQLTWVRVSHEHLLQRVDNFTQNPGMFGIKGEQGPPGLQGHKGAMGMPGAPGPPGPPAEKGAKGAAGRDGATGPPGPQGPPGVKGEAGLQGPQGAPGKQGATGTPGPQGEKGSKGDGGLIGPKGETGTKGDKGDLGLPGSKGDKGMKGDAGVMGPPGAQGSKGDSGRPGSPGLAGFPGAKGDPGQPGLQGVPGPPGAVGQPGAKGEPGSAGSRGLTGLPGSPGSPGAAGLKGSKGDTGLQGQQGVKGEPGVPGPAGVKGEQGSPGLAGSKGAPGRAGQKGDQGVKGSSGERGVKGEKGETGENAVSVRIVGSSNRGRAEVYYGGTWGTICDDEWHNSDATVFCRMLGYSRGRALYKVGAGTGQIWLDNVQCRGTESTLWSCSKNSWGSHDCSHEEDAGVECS
# B1: PI-3010-AB (antibody, human IgG1, kappa)
# heavy: not shown
# light: DIQMTQSPASLSTSLGETVSIECLASEGISNDLAWYQQKSGKSPQLLIYAASRLQDGVPSRFSGSGSGTRYSLKISGMQPEDEADYFCQQSYKYPLTFGSGTKLEIKRTVAAPSVFIFPPSDEQLKSGTASVVCLLNNFYPREAKVQWKVDNALQSGNSQESVTEQDSKDSTYSLSSTLTLSKADYEKHKVYACEVTHQGLSSPVTKSFNRGEC
# B2: PI-3015-AB (antibody, human IgG1, kappa)
# heavy: not shown
# light: DIQMTQSPSSLSASVGDRVTITCRASEGISNDLAWYQQKPGKAPKLLIYAASRLQSGVPSRFSGSGSGTDYTLTISSMQPEDFATYYCQQSYKYPLTFGQGTKLEIKRTVAAPSVFIFPPSDEQLKSGTASVVCLLNNFYPREAKVQWKVDNALQSGNSQESVTEQDSKDSTYSLSSTLTLSKADYEKHKVYACEVTHQGLSSPVTKSFNRGEC
# B3: PI-HX-3031 (antibody)
# heavy: QVQLKESGPGLVQPSQTLSLTCTVSGFSLTSYHVSWVRQPPGKGLEWMGAIWTGGSIAYNSLLKSRLSISRDTSKSQVFLKMNSLQTEDTATYYCARDLSDYYSSYTSFDYWGQGVMVTVSTAETTAPSVYPLAPGTALKSNSMVTLGCLVKGYFPEPVTVTWNSGALSSGVHTFPAVLQSGLYTLTSSVTVPSSTWSSQAVTCNVAHPASSTKVDKKIVPRECNPCGCTGSEVSSVFIFPPKTKDVLTITLTPKVTCVVVDISQNDPEVRFSWFIDDVEVHTAQTHAPEKQSNSTLRSVSELPIVHRDWLNGKTFKCKVNSGAFPAPIEKSISKPEGTPRGPQVYTMAPPKEEMTQSQVSITCMVKGFYPPDIYTEWKMNGQPQENYKNTPPTMDTDGSYFLYSKLNVKKETWQQGNTFTCSVLHEGLHNHHTEKSLSHSP
# light: DIQMTQSPASLSTSLGETVSIECLASEGISNDLAWYQQKSGKSPQLLIYAASRLQDGVPSRFSGSGSGTRYSLKISGMQPEDEADYFCQQSYKYPLTFGSGTKLEIKRADAAPTVSIFPPSTEQLATGGASVVCLMNNFYPRDISVKWKIDGTERRDGVLDSVTDQDSKDSTYSMSSTLSLTKADYESHNLYTCEVVHKTSSSPVVKSFNRNEC
# notes: Parental rat hybridoma, rat IgG2a
# Experiments:
# [1] = target: T1, chimera Mouse MARCO CLD-human MARCO …; assay: flow cytometry, cells overexpressing HuSRCR-mouse CLD chimera
# hVar3 (RG3036) = target: T4, hVar3 (RG3036) (human, UniProt Q9UEW3 147-520); assay: ELISA on hVar3
# T4 construct: Human MARCO His-CLD-SRCR with Q452D, Y472S and K473S (already in the entry); also called recombinant human SRCR MARCO hVar3 protein
# [2] = target: T2, Cynomolgus MARCO, full length, on cells; assay: flow cytometry, cells overexpressing cyno MARCO; cyn (second of hu/cyn)
# [3] = target: T2, Cynomolgus MARCO, full length, on cells; assay: flow cytometry, 293T (CyMARCO)
# Experimental: Supernatants were removed and cell pellets were resuspended in Ca²⁺+ and Mg²⁺+ Dulbecco's phosphate-buffered saline (D-PBS) at 1×10⁶ cells/ml. 100,000 cells/well were plated onto U-bottom 96-well plates for staining and all centrifugation steps were performed at 1500 rpm at 4° C. for 5 min and samples were kept protected from light throughout the protocol. Cells were pelleted and resuspended in 100 μl of Zombie NIR viability dye (BioLegend) prepared by diluting Zombie NIR dimethyl sulfoxide (DMSO) stock 1000-fold in D-PBS. […] Flow cytometry data were analyzed using FlowJo software (version 10.6.1) and data were processed and further analyzed in Microsoft Excel and GraphPad Prism software (version 8). Half-maximal effective concentrations (EC₅₀) were calculated based on geometric mean fluorescence intensities (gMFI). In case when the plates were not able to be analyzed on the cytometer, cells were pelleted after the washes and fixed in 100 μl of 2% paraformaldehyde (PFA), prepared by diluting the 16% (w/v) stock (Thermo Fisher) in DPBS, for 15 min at RT. […]
# [4] = target: T3, recombinant cynomolgus MARCO protein; assay: SPR, multi cycle kinetics, cyno MARCO
binder,measurement,setting,value
B1,EC50,[1],0.25 nM
same,binding result,hVar3 (RG3036),no binding
B2,EC50,[2],1.16 nM
B3,EC50,[3],0.51 nM
same,Kd,[4],0.109 nM
